Results as given in a protein production outcome set (Wang et al. 2014).

Test: label from the status in PepcDB records
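Also: failed if final PepcDB status was selected cloned or expressed and not failed if soluble or beyond.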

## MDELRFAAVGLNHNHIYGQVNCLLRAGARLAGFHEKDDALAAEFSAVYADARRIATAEEILEDENIGLIVSAAVSSERAELAIRAMQHGKDVLVDKPGMTSFDQLAKLRRVQAETGRIFSILYSEHFESPATVKAGELVAAGAIGEVVHIVGLGPHRLRRETRPDWFFRRADYGGILTDIASHQCEQFLFFTGVNDATVLSASVGNQSVPDAPELQDTGSIHLSTGRTTGMIHVNWLTPEGMPTWGDGRLFIVGTSGTIEVRKTVDLAGREGGNHLFLADRNGVEHIDCSRVDLPFGRQFLADIRDRTETAMPQERCFKAMELALQAQAIAEQNGDRN
  protein production: not failed

## MFWTELCFILVALMIGARIGGVFLGMVGGLGVGVMVFIFGLTPSTPPIDVILIILSVVLAAASLQASGGLDLLVKLAEKILRRHPRYITLLAPFICYIFTFMSGTGHVVYSLLPVISEVARDSGIRPERPLSISVIASQQAITASPISAAMAAMIGLMAPLGVSISTIMMICVPATLIGVAMGAIATFNKGKELKDDPEYQRRLAEGLIKPAQKESKNTVVTSRAKLSVALFLTSAIVIVLLGLIPALRPMVETAKGLQPLSMSAAIQITMLSFACLIVLLCRPQVDQIISGTVFRAGALAIVCAFGLAWMSETFVNGHIALIKAEVQTLLQQHTWLIAIMMFFVSAMVSSQAATTLILLPLGLALGLPAYALIGSWPAVNGYFFIPVAGQCLAALAFDDTGTTRIGKYVLNHSFMRPGLVNVIVSVIVGLLIGKMVLA
  protein production: failed

## MWRSLLLPTCSHALIELHFFSHYCTIMMNQNTQPTNNLKDKKITYNFNKLQKRLRRNVGNAIANFNMIEAGDKVMVCLSGGKDSYTLLDILLNLKLSAPINFDIVAVNLDQKQPGFPEHILPEYLASIGVEYKIVQENTYGIVKEKIPEGKTTCSLCSRLRRGILYRTATELGATKIALGHHRDDMLETLFLNMFYNGKLKSMPPKLISDDAKHIVIRPLAYCKEKDIEKYAEAKQFPIIPCNLCGSQPNLQRQVVKEMLQNWDRQYPGRIETMFSALQNVTPSHLCDTQLFNFKAVKHGEMINGIEGDIAFDKMDIPMTLNIQEEDEKQAYTQNGTIQFKAV
  protein production: failed

## MPQDTTNPSTGTAEQRTATDTTVQLRAGWQGRFYEDFAVGDVYKHPYGRTVTETDNVWFTNLTMNANPMHFNAAYASGTEFDERLVNGLFVIALSVGMSVVDVSANATANLGYDDIQHHAPVFHGDTLFAESEVLSKRESESRPHVGMVTTELRTYTQDGELVLSLERTPMVRKRGAADPSAARPPGWPAGVGTQPDAERTVPDGESR
  protein production: failed

## MFKEVGEPNFPKLEEEVLAFWKREKIFQKSVENRKGGPRYTVYEGPPTANGLPHVGHAQARSYKDLFPRYKTMRGYYAPRRAGWDTHGLPVELEVEKKLGLKSKREIEAYGIERFNQACRESVFTYEKEWEAFTERIAYWVDLENAYATLEPTYIESIWWSLKNLFDRGLLYRDHKVVPYCPRCGTPLSSHEVALGYKEIQDPSVYVRFPLKEPKKLGLEKASLLIWTTTPWTLPGNVAAAVHPEYTYAAFQVGDEALILEEGLGRKLLGEGTPVLKTFPGKALEGLPYTPPYPQALEKGYFVVLADYVSQEDGTGIVHQAPAFGAEDLETARVYGLPLLKTVDEEGKLLVEPFKGLYFREANRAILRDLRGRGLLFKEESYLHSYPHCWRCSTPLMYYATESWFIKNTLFKDELIRKNQEIHWVPPHIKEGRYGEWLKNLVDWALSRNRYWGTPLPIWVCQACGKEEAIGSFQELKARATKPLPEPFDPHRPYVDQVELACACGGTMRRVPYVIDVWYDSGAMPFASLHYPFEHEEVFRESFPADFIAEGIDQTRGWFNFLHQLGVMLFGSIAFKNVICHGLILYEMGQKMSKSKGNVVDPWDIIREFGADALRWYIYVSAPPEADRRFGPNLVRETVRDYFLTLWNVYSFFVTYANLDRPDLKNPPPPEKRPEMDRWLLARMQDLIQRVTEALEAYDPTTSARALRDFVVEDLSQWYVRRNRRRFWKNEDALDREAAYATLYEALVLVATLAAPFTPFLAEVLWQNLVRSVRPEAKESVHLADWPEADPALADEALVAQMRAVLKVVDLARAARAKSGVKTRTPLPLLLVTAPTALEREGLKRFAHEIAEELNVKEVRVLEPGEEILSYRVLPNLKLLGRKYGKLVPKIREALQRERERAAALALKGEAIPLEVEGEALTLLPEEVLLEAEAPKGYQALEKDGYVAALKVEVTEALRMEGLARDLIRLLQQARKDMGLKVSDRIRVGYEAEGPYLEALKRHGPWIAEEVLATAFGEGLFGGFEARVEDEEGKAVFHLARAE
  protein production: not failed

## MDPEVFAQARLRMDQLTKPPRALGYLEEVALRLAALQGRVKPELGRGAVVVAAADHGVVAEGVSAYPQEVTRQMVLNFLRGGAAINQFALAADCAVYVLDVGVVGELPDHPGLLKRKVRPGTANLAQGPAMTPEEAERALLAGREAARRAIAEGATLLAAGDMGIGNTTAAAALTAALLGLPPEAVVGRGTGVGEEGLRRKRQAVARALARLHPGMGPLEVAAEVGGLELVAIAGIYLEGYEAGLPLVLDGFPVTAGALLAWKMAPGLRDHLFAGHLSREPGHRHQLEALGLRPLLDLDLALGEGTGAVLAMPLLRAAARILHMATFQEAGVSRG
  protein production: not failed

## GHMSPGERFLDWLKRLQGQKAWTAARAAFRRSLAFPPGAYPRAMPYVEPFLAKGDWRQEEREAHYLVAALYALKDGDHQVGRTLARALWEKAQGSASVEKRFLALLEADRDQIAFRLRQAVALVEGGIDFARLLDDLLRWFSPERHVQARWAREYYGAGASEEEKKKEVEA
  protein production: not failed

## MQRGDISMTKRKDIHFRIEEKLLERFESALHYEGLKKTDVLTHAIQQFCMKVEYEKMNDVKRQYSVSNNLQTRIDTHKHYEEKQVNLDEIVIEHLQLQGRERILEVGCANGKFLSLLQANGHKGQLTGFDQSEAMLSEATKTNNLIEWRLGDAGKLPFEANYYDLIVARHMLYHMKDVEKTIQGFHKVIHPGGSLLATTNSNVTLPRIVEMCNRMLDTFDLPKTTSSVTPFCLENGKEILQSVFPTVEVSVIHNALVFHHATPIVNYISSMFPSLNIPDNTLLHAEMKDWLKEEVENELLLHNGIWRDPKTLAIYRCQKEKS
  protein production: failed

## MATAVKLSGISKTFGSLKANDNVSLSIEAGSIHALVGENGAGKSTLSNIIYGLLHPDSGTIEIDGKAVKFSSVRQAIEAGIGMVHQHFMLVPTLSVTENIILGKEESRLALPTRRIGKEIRQLSQQHGLEVDPDALVSTLSVGEQQRVEILKLLYRRAKLLILDEPTAVLSPPETARLFATLRSLAAEGRTVLLITHKLDEVLTVSDSVSVMRKGSLVGTVPTTSTSKEDLARMMVGRDVLLRTANAPQTPGKTVLSIDKLTYRSPLGIDKLTGLTLHVRAGEIYGIAGVEGNGQSELLSLLWGTFDRSGKTGGSITIDAQETLGKNPSEIAALGVSMIPEDRHKSAIIAEYGIEENLILGRHREKAFHRGIGFDRDAVHKNATAMIEQYDIRCAAGTNPPIASLSGGNQQKIVVAREMERPQLKLLVLAQPTRGVDIGAIEQIHKRIIDARKSGLAILLISSELEEIVALSTRIGCLYKGAIRHEFSETEVWRGRDHESGFEKEIGMHITLEHHHHHH
  protein production: not failed

## MEKLSAIKKPDINVADAWEQYWNKTLVNSTPVLWDANVERAVVVDLPRFELLFNPELPLIDFACGNGTQTKFLSQFFPRVIGLDVSKSALEIAAKENTAANISYRLLDGLVPEQAAQIHSEIGDANIYMRTGFHHIPVEKRELLGQSLRILLGKQGAMYLIELGTGCIDFFNSLLEKYGQLPYELLLVMEHGIRPGIFTAEDIELYFPDFEILSQGEGLFQSIHKLPDGNYATPPAFWAVIKHR
  protein production: not failed

## MQDWWEADNRLADWLSMILIQRTIEKNAKQALANLGPHLDLESLIGMDMATLEEYIYPAGFYKQKSIYIKALIKWFHGHGASLDKFQTYSTEDLRKELLGIKGVGEETADAMLLYIFERNVFIADLEHHHHHH
  protein production: failed

## MKSKFFAQNRERLVNTLPDESITILFAGQAPHMSADAHYKFVPNRNFYYVTGIDEPNVIFMLKKFGNSVEETLFIEKSDPVMEKWVGKTVSNEEAEKISGIKKVIYLDSFEKTMSNIFFTENVKHLYLDLECREWKGTETKTLAFAKHVREQYPHVTIGNVYPNICELRVFKTDEEIEIIKEAIAVTKDGIYNVLKHAKADMMEYELEAQFDFTLKSSGIKHHAFNTILASGKNATVLHYEDNDAQIQNGDLVLLDLGAQKDYYNADISYTFPANGTFSSRQKQIYNIVLNALKETTEIIKPGLKFAALNEHAKKVLAEGCKAVGLIQEDEELSKYYYHGVSHFLGLDTHDVGTYKDRVLEEGMVITIEPGLYIEEESIGIRIEDDILVTKDGHENLSKDIIREVEEIEEFMRENNVNVKQDEVVTK
  protein production: not failed

## MASGMGVDENCVARFNELKIRKTVKWIVFKIENTKIVVEKDGKGNADEFRGALPANDCRFGVYDCGNKIQFVLWCPDNAPVKPRMTYASSKDALLKKLDGATAVALEAHEMGDLAALA
  protein production: failed

## MVAHSLVPLSPAAHAARLSSPSPRSLPQAPPVVLAVPPINRRTILVGLGGALWSWNALAAKEEAMAAARRPPPPPPKEKKDPTVTGVQAKVLASKKRKEEMKASIAKLREKGKPVVEAKPSSSSSE
  protein production: failed

## MGDTKVETISRLAQWRIENFGPCSFKKSDPFKVGIWNWHLSIERNRYLSVRLFPELSRVSKEQPPVAKFVLRVSNVGPNRRFYISPVYEKLLRTTDDCVWHVDSSFHGRFTIDVEFLDLKICPVNGGEASPVWPTDATMQSISTQTTLKCLSRMLEESILTDVIIHTADGTLSAHKAILSASSTVFKSMFHHDLMEKESSTIHIDDMSRESCMALLSYLYGNITQEEFWKHRLALLGAANKYDITDLKAACEESLMEDINSSNVLERLQEAWLYQLEKLKKGCLMYLFDFGKIYDVREEISSFFRQADRELMLEMFQEVLSVWKPV
  protein production: failed

## MNVAILLAAGKGERMSENVPKQFLEIEGRMLFEYPLSTFLKSEAIDGVVIVTRREWFEVVEKRVFHEKVLGIVEGGDTRSQSVRSALEFLEKFSPSYVLVHDSARPFLRKKHVSEVLRRARETGAATLALKNSDALVRVENDRIEYIPRKGVYRILTPQAFSYEILKKAHENGGEWADDTEPVQKLGVKIALVEGDPLCFKVTFKEDLELARIIAREWERIP
  protein production: not failed

## MDGEAFEISLLDGEEDRFGGTVVNLMEVESMTIGDFDSKLDVSLKAWKDQGKKGIWIKLPSELSSLVDTAIKKGFTYHHAENEYVMLTFWLPEPPSTLPCNASHRIGIGAFVLNKNGEMLVVQENSGYFKDKNVWKVPTGTIKEGESIWAGAVREVKEETDIDAEFVEVLSFMESHQAVWQRKTDIFFVCELEARTFEIQKQDSEIHAAKWMPVEEYVNQPYHNKEGNEMFKLIANICLKRSREKYTGFVLTTNSAKKSLYCSVDHANLLKETADQASTSLSD
  protein production: failed

## MPALCSTVQTLEKLAKDDVSSLALLGRSVMHDNALTSRILRVANSAIYHKGSTQISTVSRAAIVLGFDAVRNICITAQLLSSLLESKNLAPSVYQRLIKLMAKAFQAAMLTRMMLSDYDDDIQEEAFIACLLFHIGESAFWSIGGEFTETLDSQLTECETSADERSLIRETIGTSFSQLTQSIARHWGLGELLIQAVNYPDDPRPEIRSIFLADKLCDTLSVATPDKNDLEKYINQAANFTGLDETEFTLKMQRCTKATHKLAEAYGAKVLIDYLPDPQRIDKLEPYLPEAELPIFEANLNVQLVKLRELTAFAINKADFNQIMQTVLEGILEGVGVDRCGVLLLSPSRKQLQPRIMLGRDAEEMKRQFIIELGDRKGLFPMAMEHKESLWVDSPCAKKWQEQCRELKVQLPESGFLVAPLLVDNKVIGFYYADRGPSERCFAEVDFQAFIHFSQLANVCFTVSLK
  protein production: failed

## MPKASLIIRERGLPKREVLLSPDRQWTIGRQLDCSIRLTDAYVSRLHAVINAFLFRGQPLYFIRDAHSRNGTFLNGFPLQHSTLLHHEDVIGVGTTLLVFYYPDMFREISLDECPLEHHHHHH
  protein production: not failed

## KLHYKQIVWVKLGNYRWWPAEICNPRSVPLNIQGLKHDLGDFPVFFFGSHDYYWVHQGRVFPYVEGDKSFAEGQTSINKTFKKALEEAAKRFQELKA
  protein production: not failed
